From the RNAGym collection of RNA variant scans (doi:10.1021/acssynbio.7b00057)

B1: Pistol ribozyme (parent)
chain: GGGUCGUUGUUCCAUAAUCGCGUGGAUAUGGCACGCAAGUUUCUACCGGGCACCGUAAAUGUCCGACUGGAGCCGUUCGGGCGGCUAUAAACAGACCUCAGGCCCGAAGCGUGGCGGCACCUGCCGCCGGUGGUAAAAAAGAUCGGAAGAGCACACGUCU

Variants of: B1
Assay: aptazyme ON/OFF ratio, guanine; higher = stronger switching; co-transcriptional cleavage with and without guanine

Row | Variant | aptazyme ON/OFF ratio
1 | U7G U8G U10C U11C C12A C13A | 1.3
2 | U7G U10A C12A C13U | 1.18
3 | U7G U10A C12A C13A | 1.21
4 | U7G U10A C12A C13G | 1.12
5 | U7G U8G U10C C12U C13G | 1.42
6 | U7G U8G U10C C12U C13A | 1.47
7 | U7G U8G U10C C12U C13U | 1.39
8 | U7G U8G U10C U11G C12G C13G | 1.41
9 | U7G U8G U10C U11G C12G C13A | 1.19
10 | U7G U8G U10C U11G C12G C13U | 1.32
11 | U7G U8G U11C | 1.35
12 | U7G U8G U11G | 2.52
13 | U7G U8G U11A | 1.67
14 | U7G U8G U10G U11G C13G | 1.13
15 | U7G U8G U10G U11G C13U | 1.37
16 | U7G U8G U10G U11G C13A | 1.62
17 | U7G U10A U11A C12U C13A | 1.09
18 | U7G U10A U11A C12U C13G | 1.13
19 | U7G U10A U11A C12U C13U | 1.16
20 | U7G U10A U11A C12A | 1.07
21 | U7G U10A U11A C12U | 1.16

Row | Variant | aptazyme ON/OFF ratio
22 | U7G U10A U11A C12G | 1.1
23 | U7G U8G U10C U11C C12G C13U | 1.45
24 | U7G U8G U10C U11C C12G C13G | 1.2
25 | U7G U8G U10C U11C C12G C13A | 1.24
26 | U7G U8G U10G U11A C12G C13A | 1.28
27 | U7G U8G U10G U11A C12G C13U | 1.47
28 | U7G U8G U10G U11A C12G C13G | 1.44
29 | U7G U8G U10C U11C | 2.2
30 | U7G U8G U10C U11G | 1.56
31 | U7G U8G U10C U11A | 1.74
32 | U7G U8G U10A U11A C12G C13A | 1.22
33 | U7G U8G U10A U11A C12G C13U | 1.13
34 | U7G U8G U10A U11A C12G C13G | 1.26
35 | U7G U8G U11A C12G C13U | 1.33
36 | U7G U8G U11A C12G C13G | 1.15
37 | U7G U8G U11A C12G C13A | 1.11
38 | U7G U8G U10C U11A C12A C13U | 1.14
39 | U7G U8G U10C U11A C12A C13G | 1.12
40 | U7G U8G U10C U11A C12A C13A | 1.08
41 | U7G U8G U10A U11A C12A C13U | 1.21
42 | U7G U8G U10A U11A C12A C13G | 1.22

Row | Variant | aptazyme ON/OFF ratio
43 | U7G U8G U10A U11A C12A C13A | 1.31
44 | U7G U8G G9U U11A C12A C13A | 1.07
45 | U7G U8G G9U U11A C12A C13G | 1.13
46 | U7G U8G G9U U11A C12A C13U | 1.18
47 | U7G U8G U11G C12A C13U | 1.35
48 | U7G U8G U11G C12A C13G | 1.21
49 | U7G U8G U11G C12A C13A | 1.24
50 | U7G U8G U11G C12U C13U | 1.37
51 | U7G U8G U11G C12U C13A | 1.5
52 | U7G U8G U11G C12U C13G | 1.26
53 | U7G U8G U10C C13U | 1.81
54 | U7G U8G U10C C13G | 1.17
55 | U7G U8G U10C C13A | 1.33
56 | U7G U10A U11C C12A C13A | 1.12
57 | U7G U10A U11C C12A C13G | 1.2
58 | U7G U8G U10G U11G C12G C13A | 1.42
59 | U7G U8G U10G U11G C12G C13G | 1.18
60 | U7G U8G U10G U11G C12G C13U | 1.31
61 | U7G U10A U11A C12G C13G | 1.16
62 | U7G U10A U11A C12G C13A | 1.05
63 | U7G U10A U11A C12G C13U | 1.16

Row | Variant | aptazyme ON/OFF ratio
64 | U7G U8G U10C C12G C13G | 1.54
65 | U7G U8G U10C C12G C13U | 1.33
66 | U7G U8G U10C C12G C13A | 1.4
67 | U7G U8G G9U U11C C12G C13A | 1.14
68 | U7G U8G G9U U11C C12G C13U | 1.43
69 | U7G U8G G9U U11C C12G C13G | 1.17
70 | U7G U8G G9U U10G U11G C13G | 1.08
71 | U7G U8G G9U U10G U11G C13U | 1.11
72 | U7G U8G G9U U10G U11G C13A | 1.06
73 | U7G U8G U10G U11C C12U | 1.24
74 | U7G U8G U10G U11C C12G | 1.29
75 | U7G U8G U10G U11C C12A | 1.17
76 | U7G U8G U10A C12A C13U | 1.33
77 | U7G U8G U10A C12A C13G | 1.3
78 | U7G U8G U10A C12A C13A | 1.18
79 | U7G U8G U10A U11C | 1.09
80 | U7G U8G U10A U11A | 2.25
81 | U7G U8G U10A U11G | 1.65
82 | U7G U8G U10A U11A C12U C13G | 1.22
83 | U7G U8G U10A U11A C12U C13A | 1.44
84 | U7G U8G U10A U11A C12U C13U | 1.15
